# In publication PMC5443842, “The Effect of Two Amino acid Residue Substitutions via RNA Editing on Dark-operative Protochlorophyllide Oxidoreductase in the Black Pine Chloroplasts” (Scientific Reports, 2017):
# B1: wild-type ChlB from Leptolyngbya boryana, expressed in E. coli (natural protein, UniProt P95463 1-508, looked up)
# chain: MKLAYWMYAGPAHIGTLRIASSFKNVHAIMHAPLGDDYFNVMRSMLERERDYTPVTTSVVDRHVLARGSQEKVVDNITRKDAEEHPDLIVLTPTCTSSILQEDLQNFVERAQLEAKGDVMLADVNHYRVNELQAADRTLQQIVQFYIAKARKQGNLVTEKTEKPSVNIFGMTTLGFHNNHDATELKKLMSDLGIEVNAIVPAGASVHELKSLPRAWFNLVPYRETGLLAAEFLQQEFNMPYVDITPIGIVETARCIRKIQQVINAQGANVDYEPFIDQQTRFVSQAAWFSRSIDCQNLTGKKAVVFGDNTHAAALTKILAREMGIHVLLAGTYCKYDEAWFREQVSEYCDDVLVSDDNGQIADAIARLEPAAIFGTQMERHVGKRLDIPCGVIAAPIHIQNFPVGYKPFVGYEGSNQIVDLIYNSFTLGMEDHLLEIFGGHDTKEVITKSVSADSDLNWSKDGLAELNRIPGFVRGKVKRNTEKFARDRNITQITAEVLYAAKEAVGA
# notes: ChlB, subunit of DPOR (NB protein), Leptolyngbya boryana; also called WT ChlB; WT control; source: E. coli (pHANB2), in soluble fraction
# Target: T1, Strep-ChlN from Leptolyngbya boryana, expressed in E. coli (Leptolyngbya boryana, UniProt Q04607 1-467)
# T1 construct: ChlN, subunit of DPOR (NB protein), Leptolyngbya boryana; Co-expressed with each ChlB variant; To my knowledge pASK-IBA5plus adds an N-terminal Strep-tag II; source: E. coli (chlN-chlB fragments in pASK-IBA5plus), in soluble fraction
# Assay: pull-down; ChlB variants co-expressed with Strep-ChlN in E. coli; soluble fractions on a Strep-Tactin column in an anaerobic chamber; affinity-purified proteins on SDS-PAGE stained with Coomassie Brilliant Blue, yields quantitated
# Conditions: partners not purified
# T1 sequence (Q04607 whole entry, the tested form may be a part): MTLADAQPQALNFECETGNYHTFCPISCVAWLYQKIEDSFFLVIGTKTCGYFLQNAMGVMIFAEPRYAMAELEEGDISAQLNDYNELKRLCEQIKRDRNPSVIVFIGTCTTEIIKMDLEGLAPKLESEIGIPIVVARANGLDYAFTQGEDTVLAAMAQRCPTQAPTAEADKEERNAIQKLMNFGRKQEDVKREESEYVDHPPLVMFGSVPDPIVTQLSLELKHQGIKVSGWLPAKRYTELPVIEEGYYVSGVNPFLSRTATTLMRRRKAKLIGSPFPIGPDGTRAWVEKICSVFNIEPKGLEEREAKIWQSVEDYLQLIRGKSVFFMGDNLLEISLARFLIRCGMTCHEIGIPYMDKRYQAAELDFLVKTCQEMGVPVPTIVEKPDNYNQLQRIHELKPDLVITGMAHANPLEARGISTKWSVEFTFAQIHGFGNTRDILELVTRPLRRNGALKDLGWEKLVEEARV
binder,measurement,value
B1,stoichiometry N,~1
